# Reference: patent publication EP1758924B1 (Council of Scientific and Industrial Research, dated 2005)
# B1: phage clone displaying peptide sequence Seq ID 21 (Tyr-Pro-His-His-Phe-Lys-His-Arg-His-Ile-Pro-Ile), from the Ph.D.-12 library on bacteriophage M13 (peptide)
# peptide: YPHHFKHRHIPI
# notes: Tested as whole phage in the reverse phage ELISA; not shown: fused to an M13 coat protein (spacer Gly-Gly-Gly-Ser is named)
# Target: T1, Hsp16.3 (16 kDa alpha-crystallin like heat-shock protein of Mycobacterium tuberculosis), recombinant, 6 X His … (Mycobacterium tuberculosis)
# T1 construct: also called M. tuberculosis Acr (Hsp16.3) protein
# Experiment: reverse phage ELISA on coated Hsp16.3, anti-M13-HRP, A405
binder,measurement,value
B1,fold binding over BSA background,~3 fold
